{
  "source": "FireProtDB (doi:10.1016/j.neuropharm.2010.07.001)",
  "parents": {"B1": {"name": "Adenosine receptor A2a, P29274 (parent)", "chain": "MPIMGSSVYITVELAIAVLAILGNVLVCWAVWLNSNLQNVTNYFVVSLAAADIAVGVLAIPFAITISTGFCAACHGCLFIACFVLVLTQSSIFSLLAIAIDRYIAIRIPLRYNGLVTGTRAKGIIAICWVLSFAIGLTPMLGWNNCGQPKEGKNHSQGCGEGQVACLFEDVVPMNYMVYFNFFACVLVPLLLMLGVYLRIFLAARRQLKQMESQPLPGERARSTLQKEVHAAKSLAIIVGLFALCWLPLHIINCFTFFCPDCSHAPLWLMYLAIVLSHTNSVVNPFIYAYRIREFRQTFRKIIRSHVLRQQEPFKAAGTSARVLAAHGSDGEQVSLRLNGHPPGVWANGSAPHPERRPNGYALGLVSGGSAQESQGNTGLPDVELLSHELKGVCPEPPGLDDPLAQDGAGVS"}},
  "note": "Values joined by “and” are separate entries in the source; they are usually repeats but may differ in a detail not shown here. Identical values can stand only once.",
  "data": [
    {"variants_of": "B1", "conditions": "Homo sapiens; pH 7.5; Thermal; Tris-HCl 50 mM; NaCl 250 mM; structure 5NM2; whole UniProt chain shown", "values": [
      {"variant": "MPIMGSSVYITVELAIAVLAILGNVLVCWAVWLNSNLQNVTNYFVVSLAAADILVGVLAIPFAITISTGFCAACHGCLFIACFVLVLAQSSIFSLLAIAIDRYIAIRIPLRYNGLVTGTRAAGIIAICWVLSFAIGLTPMLGWNNCGQPKEGKNHSQGCGEGQVACLFEDVVPMNYMVYFNFFACVLVPLLLMLGVYLRIFLAARRQLKQMESQPLPGERARSTLQKEVHAAKSLAIIAGLFALCWLPLHIINCFTFFCPDCSHAPLWLMYLAIVLSHTNSVVNPFIYAYRIREFRQTFRKIIRSHVLRQQEPFKAAGTSARVLAAHGSDGEQVSLRLNGHPPGVWANGSAPHPERRPNGYALGLVSGGSAQESQGNTGLPDVELLSHELKGVCPEPPGLDDPLAQDGAGVS", "note": "[A54L T88A V239A K122A]", "change of melting temperature, mutant - wild type (higher = more stable)": "12 °C and 10 °C and 9 °C"}
    ]}
  ]
}
